For the experiment, the target named is GST-fused PRAK protein (UniProt Q8IW41). The experiment in a line: SPR; GST-fused PRAK captured by anti-GST antibodies on a CM5 chip; RAGE C-terminal region as analyte, 0 to 40 uM, HBS-EP buffer pH 7.4, 30 uL/min; Biacore X-100. Background: SPR reads the build-up and loss of mass on a sensor chip optically.

The source of these data is article PMC4709948.

As a reminder, the Kd is the constant that tells how readily two partners part at equilibrium. The low end stands for tighter binding, the high end for weaker binding.

Sequence of UniProt Q8IW41 (Q8IW41 whole entry, the tested form may be a part): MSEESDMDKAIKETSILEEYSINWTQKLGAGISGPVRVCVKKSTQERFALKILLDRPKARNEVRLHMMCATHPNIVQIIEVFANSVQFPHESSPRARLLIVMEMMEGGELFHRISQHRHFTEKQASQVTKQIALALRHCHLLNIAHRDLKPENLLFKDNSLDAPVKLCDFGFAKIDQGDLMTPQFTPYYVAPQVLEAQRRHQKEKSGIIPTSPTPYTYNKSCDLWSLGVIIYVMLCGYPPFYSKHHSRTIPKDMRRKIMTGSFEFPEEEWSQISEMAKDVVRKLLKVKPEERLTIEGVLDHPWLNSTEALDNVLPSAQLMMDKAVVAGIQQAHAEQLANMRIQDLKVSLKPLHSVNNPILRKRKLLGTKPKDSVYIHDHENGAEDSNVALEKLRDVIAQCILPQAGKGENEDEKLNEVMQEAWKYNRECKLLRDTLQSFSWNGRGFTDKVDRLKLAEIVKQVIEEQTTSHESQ

Consider “RAGE C-terminal region, SPR analyte (domain or fragment)”, for which the dissociation constant (Kd) stood at 0.509 nM.
